From US20190314470A1 (UNITED STATES GOVERNMENT AS REPRESENTED BY THE DEPARTMENT …, published 2019) come the findings set out here.

The target of this assay is T1, K-RAS protein (recombinant, abcam) (UniProt P01116-2 1-188, limits assumed).
T1 construct: Bought recombinant protein used in solution in the far western; One partner was labelled with the cysteine-reactive dye NT-647
Put plainly: quantification of the anti-RAS far western of FIG. 2E; two VAMP3 preparations.

Procedure: Far Western Blotting. […] The membrane was then washed in 5% milk in TBST and incubated with horseradish peroxidase (HRP)-conjugated secondary antibody for 1 hr at RT. The membrane was then developed using the SuperSignal West Dura reagent (ThermoFischer). Quantification was done using ImageJ. For loading controls, duplicate membranes were spotted and immediately stained with a Coomassie Stain Kit (Biorad).

B1: VAMP3 (recombinant, LSbiosciences / MyBiosource) (other, UniProt Q15836 1-77, looked up)
chain: MSTGPTAATGSNRRLQQTQNQVDEVVDIMRVNVDKVLERDQKLSELDDRADALQAGASQFETSAAKLKRKYWWKNCK
notes: Two commercial preparations were spotted in the far western; also called vesicle-associated membrane protein 3
For the molecule B1, the binding result is given as “no binding (tested: 2 µg spotted)”.
